Measurements as given in patent publication US20230279104A1 (KOREA RESEARCH INSTITUTE OF BIOSCIENCE AND BIOTECHNOLOGY, published 2023).

Target: T1, human transmembrane 4 L6 family member 5 (TM4SF5) on cells (human, UniProt O14894 1-197)
T1 construct: whole, on cells; also called endogenous TM4SF5; TM4SF5 protein
T1 sequence (looked up): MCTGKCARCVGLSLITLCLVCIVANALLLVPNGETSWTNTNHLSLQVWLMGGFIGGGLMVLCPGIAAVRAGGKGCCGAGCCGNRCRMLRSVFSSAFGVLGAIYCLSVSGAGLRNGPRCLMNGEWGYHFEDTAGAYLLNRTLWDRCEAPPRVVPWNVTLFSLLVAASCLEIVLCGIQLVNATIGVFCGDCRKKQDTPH
Test: flow cytometry, internalization analysis on SNU449Tp cells
Description: Cells were transferred to ice-cold buffer to stop the occurrence of internalization and stained with FITC-conjugated anti-human IgG. PI⁻ cells were analyzed by flow cytometry.

binding result: binds
B1: humanized monoclonal antibody Ab27-hz9 (scFv-hFc form) (antibody, V domains shown)
VH: QVQLVQSGAEVKKPGASVKVSCKASGYTFTDYEMHWVRQAPGQGLEWMGAIDPETGGTAYNQKFKGRVTMTADKSISTAYMELSRLRSDDTAVYYCARPYLGYWGQGTLVTVSS
VL: EIVLTQSPGTLSLSPGERATLSCRSSQSLVHSNGNTYLHWYQQKPGQAPRLLIYKVSNRFSGIPDRFSGSGSGTDFTLTISRLEPEDFAVYYCFQGSHIPLTFGQGTKVEIK
notes: VH and VK genes were synthesized in scFv format and inserted into the pDR-OriP-Fc1 vector, so the molecule tested is an scFv-human Fc fusion; Frameworks are IGHV1-2 and IGKV3-20 with murine residues kept at H71 and H73; also called humanized Ab27
